The target in test [1] is T1, recombinant human C1r2s2 tetramer (human, UniProt P09871 16-688; P00736 18-705).
T1 construct: C1s and C1r co-expressed in HEK293 and purified from the supernatant as tetramer; also called hC1r2s2
T1 chain 1: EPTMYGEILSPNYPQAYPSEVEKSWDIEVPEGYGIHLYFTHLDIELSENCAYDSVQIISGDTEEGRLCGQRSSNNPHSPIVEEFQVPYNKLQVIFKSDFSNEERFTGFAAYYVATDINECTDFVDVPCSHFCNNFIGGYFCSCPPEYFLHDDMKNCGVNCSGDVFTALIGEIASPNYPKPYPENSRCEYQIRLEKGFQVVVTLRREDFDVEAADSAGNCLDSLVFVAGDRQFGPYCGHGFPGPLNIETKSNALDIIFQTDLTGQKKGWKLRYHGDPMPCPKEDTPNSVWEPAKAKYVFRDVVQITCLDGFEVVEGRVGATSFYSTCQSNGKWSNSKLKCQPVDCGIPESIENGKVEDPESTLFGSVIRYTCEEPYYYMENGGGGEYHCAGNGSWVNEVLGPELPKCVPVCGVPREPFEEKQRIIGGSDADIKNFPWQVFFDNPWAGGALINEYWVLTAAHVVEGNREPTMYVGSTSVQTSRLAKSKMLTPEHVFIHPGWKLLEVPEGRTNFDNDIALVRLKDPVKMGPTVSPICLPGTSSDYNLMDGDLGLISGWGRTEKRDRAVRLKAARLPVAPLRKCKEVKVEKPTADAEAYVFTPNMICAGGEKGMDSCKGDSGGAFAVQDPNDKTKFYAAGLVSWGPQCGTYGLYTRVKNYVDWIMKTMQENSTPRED
T1 chain 2: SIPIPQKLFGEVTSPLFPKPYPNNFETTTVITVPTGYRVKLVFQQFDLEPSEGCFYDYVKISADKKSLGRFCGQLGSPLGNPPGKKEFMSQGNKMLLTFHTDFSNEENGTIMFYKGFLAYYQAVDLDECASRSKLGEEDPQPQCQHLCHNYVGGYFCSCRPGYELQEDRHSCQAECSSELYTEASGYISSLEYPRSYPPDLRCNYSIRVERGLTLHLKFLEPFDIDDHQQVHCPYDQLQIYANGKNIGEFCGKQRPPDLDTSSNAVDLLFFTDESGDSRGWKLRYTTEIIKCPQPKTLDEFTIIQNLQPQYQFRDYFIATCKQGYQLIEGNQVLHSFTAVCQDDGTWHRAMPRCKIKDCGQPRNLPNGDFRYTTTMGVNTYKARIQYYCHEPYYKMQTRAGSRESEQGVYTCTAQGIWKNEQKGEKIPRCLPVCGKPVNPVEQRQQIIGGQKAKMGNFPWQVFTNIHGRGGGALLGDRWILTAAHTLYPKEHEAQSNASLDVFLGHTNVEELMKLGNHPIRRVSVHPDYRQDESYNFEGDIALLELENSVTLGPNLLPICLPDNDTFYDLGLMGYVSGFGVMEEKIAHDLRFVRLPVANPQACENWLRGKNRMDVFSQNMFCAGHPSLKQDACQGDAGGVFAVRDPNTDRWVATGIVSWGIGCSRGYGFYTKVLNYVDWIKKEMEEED
In words: SPR (Biacore T200), 37 C; ratio of KD at pH 6.0 to KD at pH 7.4. The method, then: (§1) The binding property of each sample at pH7.4 and pH6.0 was determined at 37° C. using BIACORE® T200 instrument (Cytiva). […] 20 mM ACES, 150 mM NaCl, 1.2 mM CaCl₂, 1 mg/mL BSA (not containing IgG), 1 mg/mL CMD, 0.05% Tween® 20, 0.005 w/v % NaN₃, pH7.4 or pH6.0 buffer was used as the running buffer. […] The antibody solution was added thereto at 30 μL/min for 120 seconds, the running buffer was then added at 30 μL/min for 180 seconds, and the dissociation constant (KD) of each antibody for hC1r2s2 and cyC1r2s2 was calculated. […] The sensor surface was regenerated every cycle, using 3 M MgCl2 (prepared in-house). The KD value was calculated using BIACORE® T200 evaluation software version 2.0 (Cytiva). The binding strengths under each pH condition were compared by dividing the KD value at pH6.0 with the KD value at pH7.4.

Test [2] concerns the target T2, recombinant cynomolgus C1r2s2 tetramer (cynomolgus monkey, limits assumed).
T2 construct: also called cyC1r2s2; monkey C1r2s2
T2 chain 1: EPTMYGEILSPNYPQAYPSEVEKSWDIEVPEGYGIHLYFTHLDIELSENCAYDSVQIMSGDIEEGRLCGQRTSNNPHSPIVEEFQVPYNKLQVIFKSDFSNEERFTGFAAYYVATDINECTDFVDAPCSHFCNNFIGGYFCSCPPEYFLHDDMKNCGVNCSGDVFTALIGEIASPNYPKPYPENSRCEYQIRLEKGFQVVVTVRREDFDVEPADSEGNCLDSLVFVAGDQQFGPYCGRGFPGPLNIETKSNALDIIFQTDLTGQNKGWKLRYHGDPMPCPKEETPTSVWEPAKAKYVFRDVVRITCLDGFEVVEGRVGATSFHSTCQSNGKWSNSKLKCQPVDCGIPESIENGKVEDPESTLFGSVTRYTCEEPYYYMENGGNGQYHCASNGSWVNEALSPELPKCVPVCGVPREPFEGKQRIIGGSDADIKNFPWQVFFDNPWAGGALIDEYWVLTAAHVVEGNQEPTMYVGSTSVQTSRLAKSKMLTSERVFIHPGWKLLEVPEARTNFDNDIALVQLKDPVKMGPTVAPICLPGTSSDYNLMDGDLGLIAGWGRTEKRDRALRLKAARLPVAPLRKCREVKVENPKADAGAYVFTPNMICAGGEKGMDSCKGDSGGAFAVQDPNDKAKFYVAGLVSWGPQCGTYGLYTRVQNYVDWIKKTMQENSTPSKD
T2 chain 2: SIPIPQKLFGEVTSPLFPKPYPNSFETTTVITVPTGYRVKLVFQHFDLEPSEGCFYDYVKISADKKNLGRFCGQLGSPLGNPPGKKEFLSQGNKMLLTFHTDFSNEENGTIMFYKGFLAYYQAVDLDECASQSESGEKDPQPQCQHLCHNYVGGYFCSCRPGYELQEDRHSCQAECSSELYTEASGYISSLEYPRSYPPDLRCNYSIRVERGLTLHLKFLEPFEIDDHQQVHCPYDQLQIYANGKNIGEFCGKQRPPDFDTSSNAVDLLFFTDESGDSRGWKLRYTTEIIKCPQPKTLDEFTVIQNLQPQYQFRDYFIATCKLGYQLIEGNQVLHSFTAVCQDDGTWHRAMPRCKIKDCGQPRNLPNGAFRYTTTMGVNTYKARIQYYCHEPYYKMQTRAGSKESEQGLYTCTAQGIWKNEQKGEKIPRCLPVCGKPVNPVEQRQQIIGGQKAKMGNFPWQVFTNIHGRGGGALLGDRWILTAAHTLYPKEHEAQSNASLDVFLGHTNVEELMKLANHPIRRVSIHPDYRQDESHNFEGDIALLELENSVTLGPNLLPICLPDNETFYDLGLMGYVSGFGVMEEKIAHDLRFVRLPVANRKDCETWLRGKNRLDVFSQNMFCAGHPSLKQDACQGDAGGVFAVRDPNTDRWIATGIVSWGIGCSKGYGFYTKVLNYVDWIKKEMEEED
The test is described as above. The method, then:
as §1

Test [3] has as its target T2, recombinant cynomolgus C1r2s2 tetramer. In words: SPR (Biacore T200), 37 C, pH 6.0; cyC1r2s2 captured by IPN009, antibody as analyte. On the procedure: as §1
For test [4] the target is unchanged. The experiment in a line: SPR (Biacore T200), 37 C, pH 7.4; cyC1r2s2 captured by IPN009, antibody as analyte. The method, then:
as §1

The target of test [5] is T1, recombinant human C1r2s2 tetramer. The experiment in a line: SPR (Biacore T200), 37 C, pH 6.0; hC1r2s2 captured by IPN009, antibody as analyte; pH 6.0, 37 C; hC1r2s2 captured by IPN009 on the chip, antibody as analyte. On the procedure:
as §1
In general terms: SPR reads the build-up and loss of mass on a sensor chip optically.

The target is the same in test [6]. The experiment in a line: SPR (Biacore T200), 37 C, pH 7.4; hC1r2s2 captured by IPN009, antibody as analyte; pH 7.4, 37 C; hC1r2s2 captured by IPN009 on the chip, antibody as analyte. The method, then: as §1
The target is the same in test [7]. In words: SPR (Biacore T200), IPN009 immobilised on CM5 chip as capture antibody. The method, then: as §1
The target in test [8] is T2, recombinant cynomolgus C1r2s2 tetramer. The test is described as above. On the procedure:
as §1

B1: COS0637pHv3-TT91R (antibody, human IgG1, V domains shown)
VH: QVQLVESGGGVVQPGRSLRLSCAASGFTFSAYAMNWIRQPPGKGLEWIGLIYGSGHEFYASWAEERVTISVDTSKNQFSLKLSSVTAADTAVYYCARGRSKNYVSGFHLWGQGTLVTVSS
VL: DIQMTQSPSSLSASVGDRVTITCQASQILHDKKNLAWYQQKPGQPPKLLIYQASQLESGVPSRFSGSGSGTDFTLTISSLQPEDFATYYCHGEFSYESADLNQFGQGTKVEIKR
notes: Modified human IgG1 constant region TT91R, light chain constant region SK1
The Kd is the concentration at which binding is half-saturated. Take B1: the “KD (pH 6.0)/KD (pH 7.4)” value in test [1] was 26.5; in test [2], 43.8. Further, the Kd in test [3] came out at 22 nM; in test [4], 0.502 nM; in test [5] it was 10.3 nM; in test [6] it was 0.388 nM.

B2: IPN009VH2VK3-SG1148 (antibody, human IgG1, kappa, V domains shown)
VH: EVMLVESGGGLVKPGGSLRLSCAASGFTFSNYAMSWVRQAPGKGLEWVATISSGGSHTYYLDSVKGRFTISRDNSKDTLYLQMNSLRAEDTALYYCARLFTGYAMDYWGQGTLVTVSS
VL: QIVLTQSPATLSLSPGERATLSCTASSSVSSSYLHWYQQKPGKAPKLWIYSTSNLASGVPSRFSGSGSGTDYTLTISSLQPEDFATYYCHQYYRLPPITFGQGTKLEIKR
notes: Anti-C1s / anti-human C1r2s2 antibody immobilised on the chip as capture reagent
Regarding B2, the binding result in test [7] and in test [8] was “binds” in each case.

(Values after patent US20240287163A1 (Chugai, published 2024).)
